Data on one molecule can be found in US20160130351A1 (NOVIMMUNE S A, published 2016).

Test [1] addresses T1, membrane-bound human IL-6R (human, UniProt P08887 20-468).
T1 construct: whole, on cells; also called mIL-6R; membrane IL-6R
T1 sequence (looked up): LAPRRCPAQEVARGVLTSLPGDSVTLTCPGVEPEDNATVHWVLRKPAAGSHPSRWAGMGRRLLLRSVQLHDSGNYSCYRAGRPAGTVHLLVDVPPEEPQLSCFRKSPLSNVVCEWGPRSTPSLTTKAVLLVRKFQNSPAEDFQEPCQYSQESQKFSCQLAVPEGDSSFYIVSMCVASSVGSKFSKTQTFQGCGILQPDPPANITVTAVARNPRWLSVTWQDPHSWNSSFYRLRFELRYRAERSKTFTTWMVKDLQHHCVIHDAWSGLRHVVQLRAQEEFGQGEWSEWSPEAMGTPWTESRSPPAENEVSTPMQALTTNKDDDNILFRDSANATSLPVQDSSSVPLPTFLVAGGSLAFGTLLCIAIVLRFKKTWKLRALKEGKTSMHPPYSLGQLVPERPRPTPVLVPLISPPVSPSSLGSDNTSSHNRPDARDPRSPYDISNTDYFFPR
Nature of the test: flow cytometry on HepG2 cells, goat anti-human IgG Alexa Fluor 647. As to the method:
Cell surface staining is performed on HepG2 cells with different doses of mAbs. […] Each experiment was performed in triplicates.

In test [2] the target is soluble human IL-6Rc (shuIL-6Rc) recombinant fusion protein of IL-6R and IL-6 (human) (UniProt P08887). Nature of the test: SPR (Biacore 2000), mAb captured on anti-human IgG Fc, analyte in solution, 25 C, 1:1 Langmuir. A general note: In SPR one partner is held on a chip, and binding of the other changes the refractive index at the surface.
For test [3], the target named is T2, carrier-free soluble human IL-6R (R&D) (human, UniProt P08887 20-365).
T2 construct: extracellular domain; also called shuIL-6R; shuIL6-R
T2 sequence (looked up): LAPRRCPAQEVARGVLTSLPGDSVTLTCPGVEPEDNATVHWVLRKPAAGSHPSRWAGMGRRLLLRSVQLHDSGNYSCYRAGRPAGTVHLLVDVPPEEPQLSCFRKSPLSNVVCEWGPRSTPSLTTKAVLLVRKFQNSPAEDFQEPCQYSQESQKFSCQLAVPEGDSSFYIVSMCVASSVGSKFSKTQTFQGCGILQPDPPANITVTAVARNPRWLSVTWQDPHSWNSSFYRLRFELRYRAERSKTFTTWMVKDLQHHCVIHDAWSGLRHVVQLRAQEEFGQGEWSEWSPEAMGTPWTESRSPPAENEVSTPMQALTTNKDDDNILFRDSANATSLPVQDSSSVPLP
The description is as above. As to the method:
(§1) A CM5 Biacore chip was used and 1640 RU (response units) of an anti-human IgG Fc (Biacore AB, Uppsala, Sweden) was immobilized by EDC/NHS chemistry. […] The surface was regenerated after each cycle by injection of 3M magnesium chloride at 20 μL/min, for 30 s followed by lmin of stabilization time in HBS-EP buffer (Biacore AB, Uppsala, Sweden). Binding was measured by passing analytes carrier-free soluble human IL-6R (shuIL6-R; R&D), soluble human IL-6Rc (shuIL-6Rc) and soluble cynomolgus monkey IL-6R (scyIL-6R) in duplicates at the following concentrations: 100 nM, 50 nM, 25 nM, 12.5 nM, 6.25 nM and 0nM. All solutions were diluted in HBS-EP buffer. Injection was performed at 50 μl/min for 3 min followed by 12 min of dissociation time and the temperature was set at 25° C.

Test [4] concerns the target T3, soluble cynomolgus monkey IL-6R (cynomolgus monkey, UniProt A0A2K5WN54 60-396).
T3 construct: extracellular domain; also called scyIL-6R; soluble cynomolgus monkey IL-6 Receptor; not shown: C-terminal His- or Avi-Tag
T3 sequence: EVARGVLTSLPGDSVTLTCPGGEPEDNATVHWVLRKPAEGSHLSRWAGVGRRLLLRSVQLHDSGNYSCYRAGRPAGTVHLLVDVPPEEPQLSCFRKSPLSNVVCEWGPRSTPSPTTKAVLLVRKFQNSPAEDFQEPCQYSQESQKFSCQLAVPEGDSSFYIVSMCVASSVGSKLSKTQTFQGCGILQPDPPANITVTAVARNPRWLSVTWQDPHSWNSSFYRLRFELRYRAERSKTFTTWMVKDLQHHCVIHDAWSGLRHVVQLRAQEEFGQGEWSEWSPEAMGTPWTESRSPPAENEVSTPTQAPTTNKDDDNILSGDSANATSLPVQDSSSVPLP
The description is as above. As to the method:
as §1

For test [5], the target named is T4, MUTANT 5 (mouse, UniProt P22272).
T4 construct: also called mouse IL-6R with human residues in D3, mutant 5
T4 sequence (receptor chain, looked up): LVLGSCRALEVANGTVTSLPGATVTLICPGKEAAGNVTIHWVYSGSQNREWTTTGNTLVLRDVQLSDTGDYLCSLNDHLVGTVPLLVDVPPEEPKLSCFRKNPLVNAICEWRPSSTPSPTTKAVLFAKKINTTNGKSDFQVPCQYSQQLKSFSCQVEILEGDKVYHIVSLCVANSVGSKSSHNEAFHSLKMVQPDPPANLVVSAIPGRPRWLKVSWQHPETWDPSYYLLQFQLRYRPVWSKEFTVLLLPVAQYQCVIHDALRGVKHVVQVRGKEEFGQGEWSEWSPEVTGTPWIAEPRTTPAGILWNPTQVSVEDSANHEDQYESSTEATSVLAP
Nature of the test: flow cytometry on PEAK cells displaying the mutated mouse IL-6R, goat anti-human IgG Alexa Fluor 647. The text has this: An overlap extension PCR strategy was used to generate coding sequences specifying huIL-6R/mouseIL-6R chimeric proteins (FIG. 6A) and mouse IL-6R proteins containing human amino acid substitutions in D3 domains (FIG. 6B). Partially overlapping mutagenic oligonucleotide primers were used for PCR amplification of N- and C-terminal sequences on either side of huIL-6R/mouse IL-6R junctions or substituted regions, followed by gel isolation and annealing of the denatured PCR products. Full length PCR products were then digested by EcoRI and BglII and ligated into a pDISPLAY™ vector (Invitrogen). PEAK cells were grown in DMEM medium supplemented with 10% fetal calf serum and 4 mM L-glutamine. Cells were plated 12 to 24 h before transfection to have 40-50% confluency in 6 well plates. Transfections of pDISPLAY™ vectors (Invitrogen) were carried out by lipofection using TransIT® LT1 reagent (MirusBio) according manufacturer's specifications. Cells were grown for 48 h before harvesting and analysis by flow cytometry.
Cell surface staining was performed on PEAK cells displaying each variant of IL-6R and analyzed by flow cytometry (FIG. 6B-D). Cell surface expression of each chimeric IL-6R was assessed using an anti-human-CD126 PE or an anti-mouse CD126-PE antibody (BD Pharmingen).

B1: NI-1201 wild type (NI-1201-WT) antibody (antibody, V domains shown)
VH: QVQLVQSGAEVKKPGSSVKVSCKASGGTFSSYAISWVRQAPGQGLEWMGGIIPLFDTTKYAQQFQGRVTITADESTSTAYMELSSLRSEDTAVFYCARDRDILTDYYPMGGMDVWGQGTTVTVSS
VL: AIQLTQSPSSLSASVGDRVTITCRASQGISSVLAWYQQKPGKAPKLLIYDASSLESGVPSRFSGSGSGTDFTLTISSLQPEDFATYYCQQSNSYPLTFGGGTKVEIKR
notes: Fully human monoclonal IgG (captured by anti-human IgG Fc in Biacore); also called 39B9 VL1
With B1, the EC50 (read off the curve) (as a rule, the concentration at which the effect is half-maximal) in test [1] is around 0.2 µg/mL. Moreover, in test [2], the dissociation constant (Kd) (as a rule, the constant that tells how readily two partners part at equilibrium) is 5.64 nM; the koff (commonly the rate constant with which the complex falls apart) was determined as 0.000243 s⁻¹; the kon – broadly, a measure of how fast the partners come together – amounted to 43100 M⁻¹ s⁻¹. In addition, in test [3], binding was put at a Kd of 0.0567 nM, the off-rate constant (koff) stood at 7.53e-05 s⁻¹ and the kon is 1.33e+06 M⁻¹ s⁻¹. In test [4], this molecule displayed a Kd of 2.04 nM, a koff of 0.000215 s⁻¹ and an on-rate (kon) of 106000 M⁻¹ s⁻¹. Moreover, the binding result in test [5] was “no binding”.
